In the supplement of paper PMC7877785:
± gives the uncertainty stated by the source.

Assay: self-splicing fitness, log relative to wild type (ln ratio); higher = more splicing; Tetrahymena group I intron in knt gene, E. coli kanamycin selection, DiMSum; sequences stand for … in CUCUCU…GGAGGGAAAAGUUAUCAGGCAUGCACCUGGUAGCUAGUCUUUAAACCAAUAGAUUGCAUCGGUUUAAAAGGCAAGACCGUCAAAUUGCGGGAAAGGGGUCAACAGCCGUUCAGUACCAAGUCUCAGGGGAAACUUUGAGAUGGCCUUGCAAAGGGUAUGGUAAUAAGCUGACGGACAUGGUCCUAACCACGCAGCCAAGUCCUAAGUCAACAGAUCUUCUGUUGAUAUGGAUGCAGUUCACAGACUAAAUGUCGGUCGGGGAAGAUGUAUUCUUCUCAUAAGAUAUAGUCGGACCUCUCCUUAAUGGGAGCUAGCGGAUGAAGUGAUGCAACACUGGAGCCGCUGGGAACUAAUUUGUAUGCGAAAGUAUAUUGAUUAGUUUUGGAGUACUCGUGGUCG
How it was run: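 DiMSum derived fitness as the error-weighted combination of fold changes across replicates, kanamycin versus no kanamycin, normalised to wild type. E. coli BL21(DE3) held the library, which randomised all eight P1ex-region intron nucleotides within the knt kanamycin-resistance gene on pET-22b(+). Six replicate transformations grew overnight at 37°C or 30°C on LB agar with or without 25 μg/mL kanamycin, also containing 100 μg/mL carbenicillin, 50 μM IPTG and 0.2% rhamnose, and pooled colonies were amplicon-sequenced on an Illumina HiSeq 2500.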

| Sequence | self-splicing fitness (ln) (30 °C) | self-splicing fitness (ln) (37 °C) |
| --- | --- | --- |
| UUUCAGCAAUAUUACGGCCG | -0.936 ± 0.17 | -0.968 ± 0.26 |
| UUUCAGCAAUAUUACGGCUA | 0.189 ± 0.14 | 0.336 ± 0.12 |
| UUUCAGCAAUAUUACGGUGU | -2.91 ± 0.13 | -2.15 ± 0.18 |
| UUUCAGCAAUAUUACGUAAC | -3.2 ± 0.23 | -2.4 ± 0.27 |
| UUUCAGCAAUAUUACGUACU | -1.49 ± 0.15 | -0.647 ± 0.17 |
| UUUCAGCAAUAUUACGUGUU | -3.42 ± 0.13 | -2.87 ± 0.14 |
| UUUGAGCAAUAUUACGAACA | -2.9 ± 0.23 | -2.15 ± 0.21 |
| UUUGAGCAAUAUUACGAACC | -2.5 ± 0.35 |  |
| UUUGAGCAAUAUUACGAAGU |  | -2.67 ± 0.3 |
| UUUGAGCAAUAUUACGAUAC | -3.55 ± 0.48 |  |
| UUUGAGCAAUAUUACGAUGG | -2.08 ± 0.17 | -1.77 ± 0.2 |
| UUUGAGCAAUAUUACGAUUU | -3.28 ± 0.24 | -2.05 ± 0.27 |
| UUUGAGCAAUAUUACGCAGG | -2.99 ± 0.21 | -1.34 ± 0.18 |
| UUUGAGCAAUAUUACGCAUG | -0.647 ± 0.12 | -0.524 ± 0.19 |
| UUUGAGCAAUAUUACGCAUU | -2.65 ± 0.27 | -1.09 ± 0.2 |
| UUUGAGCAAUAUUACGCCUU |  | -2.2 ± 0.45 |
| UUUGAGCAAUAUUACGCUGU | -3.01 ± 0.27 |  |
| UUUGAGCAAUAUUACGGAUC | -3.24 ± 0.37 | -2.24 ± 0.44 |
| UUUGAGCAAUAUUACGGCAU | -1.56 ± 0.33 | -1.62 ± 0.3 |
| UUUGAGCAAUAUUACGGGGA |  | -2.42 ± 0.41 |
| UUUGAGCAAUAUUACGUAGC | -1.83 ± 0.32 |  |

| Sequence | self-splicing fitness (ln) (30 °C) | self-splicing fitness (ln) (37 °C) |
| --- | --- | --- |
| UUUGAGCAAUAUUACGUGCA | -3.05 ± 0.21 | -1.96 ± 0.18 |
| UUUGAGCAAUAUUACGUUUA | -3.32 ± 0.24 | -2.21 ± 0.23 |
| UUUUAGCAAUAUUACGAACG | -0.665 ± 0.11 | 0.449 ± 0.18 |
| UUUUAGCAAUAUUACGAACU | -1.75 ± 0.34 | -0.164 ± 0.23 |
| UUUUAGCAAUAUUACGAAGA | -1.85 ± 0.31 | -1.21 ± 0.22 |
| UUUUAGCAAUAUUACGACGG | -0.13 ± 0.14 | -0.173 ± 0.18 |
| UUUUAGCAAUAUUACGACUA | -0.401 ± 0.18 | 0.109 ± 0.14 |
| UUUUAGCAAUAUUACGACUU | -1.64 ± 0.32 | -1.14 ± 0.33 |
| UUUUAGCAAUAUUACGAGAG | -1.12 ± 0.18 | -0.225 ± 0.21 |
| UUUUAGCAAUAUUACGAUCG | -0.15 ± 0.26 |  |
| UUUUAGCAAUAUUACGAUGU | -2.19 ± 0.23 | -1.6 ± 0.16 |
| UUUUAGCAAUAUUACGCAUU | -2.39 ± 0.11 | -1.27 ± 0.15 |
| UUUUAGCAAUAUUACGCGCG | -0.432 ± 0.11 | -0.122 ± 0.15 |
| UUUUAGCAAUAUUACGCUUG | -0.327 ± 0.2 | -0.13 ± 0.19 |
| UUUUAGCAAUAUUACGGACU | -2.67 ± 0.39 | -0.49 ± 0.35 |
| UUUUAGCAAUAUUACGGUCU | -2.23 ± 0.17 | -1.35 ± 0.2 |
| UUUUAGCAAUAUUACGUAUU | -3.2 ± 0.35 | -1.04 ± 0.38 |
| UUUUAGCAAUAUUACGUGAA | -1.14 ± 0.074 | -0.89 ± 0.1 |
| UUUUAGCAAUAUUACGUGAG | -0.331 ± 0.12 | -0.445 ± 0.22 |
| UUUUAGCAAUAUUACGUGAU | -2.76 ± 0.31 | -2.19 ± 0.32 |
